In series [1] the test system is COc1cccc(CO)c1. Description: purified protein. As to conditions: apparent, FAD-reconstituted enzyme, 0.1 M sodium phosphate pH 6.0.
Series [2] addresses T1, rAOx (recombinant alcohol oxidase, A. terreus MTCC6324) (Aspergillus terreus, UniProt I7FDJ2).
T1 construct: gene AOx; full-length ORF 2001 bp, 666 residues; pET28a(+), N- and C-terminal His6 kept; ~74-76 kDa; highly aggregated (~1000 nm)
T1 sequence (I7FDJ2 1-666): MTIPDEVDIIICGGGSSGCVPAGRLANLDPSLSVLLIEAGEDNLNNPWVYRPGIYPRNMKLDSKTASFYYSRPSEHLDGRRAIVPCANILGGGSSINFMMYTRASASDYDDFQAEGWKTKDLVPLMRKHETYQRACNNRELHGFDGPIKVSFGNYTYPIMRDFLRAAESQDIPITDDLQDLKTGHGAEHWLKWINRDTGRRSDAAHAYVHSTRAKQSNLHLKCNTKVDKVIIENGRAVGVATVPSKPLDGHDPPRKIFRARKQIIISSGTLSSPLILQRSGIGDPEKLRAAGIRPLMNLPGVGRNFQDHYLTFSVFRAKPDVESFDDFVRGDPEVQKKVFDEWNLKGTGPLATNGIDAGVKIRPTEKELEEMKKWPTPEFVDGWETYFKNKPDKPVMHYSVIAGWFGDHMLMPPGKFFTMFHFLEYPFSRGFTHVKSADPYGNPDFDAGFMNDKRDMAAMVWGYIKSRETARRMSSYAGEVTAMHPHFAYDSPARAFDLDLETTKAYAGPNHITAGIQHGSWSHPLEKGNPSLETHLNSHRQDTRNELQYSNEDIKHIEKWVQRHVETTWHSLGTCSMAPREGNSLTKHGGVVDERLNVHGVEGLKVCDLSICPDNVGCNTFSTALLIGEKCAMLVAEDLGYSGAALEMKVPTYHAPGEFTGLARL
The series can be described thus: FAD fluorescence quenching (ex […] nm, em […] nm) after reconstitution of apoenzyme. The series is classed as binding. As to conditions: refolding of apo-rAOx with 0.08 mM FAD, pH 9.0, 16 °C, ~80 h.

Substrate in series [3]: COc1ccc(CO)cc1OC
The series can be described thus: purified protein. The series is classed as biochemical, Aspergillus terreus. As to conditions: apparent, FAD-reconstituted enzyme, 0.1 M sodium phosphate pH 6.0.

Substrate in series [4]: OCc1ccccc1
The series can be described thus: purified protein. The series is classed as biochemical, Aspergillus terreus. The conditions noted are these: apparent, FAD-reconstituted enzyme, 0.1 M sodium phosphate pH 6.0.

The Km is the concentration of substrate that gives half-maximal velocity. As usually defined, the kcat is the number of substrate molecules converted per active site and unit of time at saturation. In general, kcat/Km refers to the second-order rate constant that governs catalysis at low substrate concentration.

In the case of “rAOx (recombinant alcohol oxidase, A. terreus MTCC6324) (Aspergillus terreus)”, in series [1], the Michaelis-Menten constant (Km) is reported as 2.88 mM, the catalytic constant (kcat) was found to be 106 s⁻¹ and the kcat/Km was 36700 M⁻¹ s⁻¹.

For `Cc1cc2nc3c(=O)[nH]c(=O)nc-3n(C[C@H](O)[C@H](O)[C@H](O)COP(=O)(O)OP(=O)(O)OC[C@H]3O[C@@H](n4cnc5c(N)ncnc54)[C@H](O)[C@@H]3O)c2cc1C` [FAD], the “FAD fluorescence quenching (ex 443 nm, em 527 nm) after reconstitution of apoenz” value in series [2] is “lower fluorescence intensity of the holoenzyme relative to that of free FAD inferred efficient incorporation”.

B1: rAOx (recombinant alcohol oxidase, A. terreus MTCC6324) (Aspergillus terreus) (protein)
chain: MTIPDEVDIIICGGGSSGCVPAGRLANLDPSLSVLLIEAGEDNLNNPWVYRPGIYPRNMKLDSKTASFYYSRPSEHLDGRRAIVPCANILGGGSSINFMMYTRASASDYDDFQAEGWKTKDLVPLMRKHETYQRACNNRELHGFDGPIKVSFGNYTYPIMRDFLRAAESQDIPITDDLQDLKTGHGAEHWLKWINRDTGRRSDAAHAYVHSTRAKQSNLHLKCNTKVDKVIIENGRAVGVATVPSKPLDGHDPPRKIFRARKQIIISSGTLSSPLILQRSGIGDPEKLRAAGIRPLMNLPGVGRNFQDHYLTFSVFRAKPDVESFDDFVRGDPEVQKKVFDEWNLKGTGPLATNGIDAGVKIRPTEKELEEMKKWPTPEFVDGWETYFKNKPDKPVMHYSVIAGWFGDHMLMPPGKFFTMFHFLEYPFSRGFTHVKSADPYGNPDFDAGFMNDKRDMAAMVWGYIKSRETARRMSSYAGEVTAMHPHFAYDSPARAFDLDLETTKAYAGPNHITAGIQHGSWSHPLEKGNPSLETHLNSHRQDTRNELQYSNEDIKHIEKWVQRHVETTWHSLGTCSMAPREGNSLTKHGGVVDERLNVHGVEGLKVCDLSICPDNVGCNTFSTALLIGEKCAMLVAEDLGYSGAALEMKVPTYHAPGEFTGLARL
notes: full-length ORF 2001 bp, 666 residues; pET28a(+), N- and C-terminal His6 kept; ~74-76 kDa; highly aggregated (~1000 nm)
Take B1: in series [3], the Km came out at 4.91 mM, the catalytic constant (kcat) stood at 115 s⁻¹ and the catalytic efficiency (kcat/Km) was 23500 M⁻¹ s⁻¹. Further, in series [4], the Km came to 10.80 mM, the kcat came to 2.16 s⁻¹ and the specificity constant (kcat/Km) was 200 M⁻¹ s⁻¹.
